# Target: recombinant stabilized HA trimer of H1N1 virus A/Solomon Islands/3/2006 (H1 SI06) (influenza A virus A/Solomon Islands/3/2006 (H1N1))
# Assay: cryo-EM structure
substance,measurement,value
recombinant stabilized HA trimer of H1N1 virus A/Solomon Islands/3/2006 (H1 SI06) (natural protein),stoichiometry N,3
